Source: the supplement of paper PMC10567573

B1: FBXO34 (parent)
chain: PRYREDPCKQCKKKYVKGDVSLCR

Variants of: B1
Test: protein stability index of a GFP-peptide fusion (GPS, HEK-293T) (PSI 1-6); higher = more stable
Conditions: c terminus: a fixed tail appended
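Also: lentivirally expressed fusions sorted by FACS into six bins by GFP to DsRed ratio, PSI derived from sequencing read proportions per bin multiplied by bin number.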

Protein stability index, by site and new letter:
G18: V 2.46 | R 3.31 | K 2.69 | W 2.3 | T 2.5 | S 2.92 | Q 3.2 | A 2.54 | P 3.13 | C 2.94 | H 3.23 | L 2.25 | I 2.35 | M 2.18 | Y 2.35 | N 2.92 | F 2.16 | D 2.86 | E 3.17
E5: H 2.76 | M 2.66 | T 2.67 | C 2.7 | Q 2.83 | I 2.46 | G 2.68 | N 2.58 | K 3.27 | L 2.78 | R 2.8 | D 2.94 | W 2.33 | F 2.57 | P 2.77 | S 2.58 | Y 2.51 | V 2.83 | A 2.66
Q10: C 2.13 | I 2.13 | M 2.09 | R 2.75 | N 2.64 | G 3.31 | K 2.81 | T 2.78 | L 2.04 | E 2.87 | V 3.28 | P 3.13 | D 2.83 | W 2.69 | Y 2.72 | H 2.39 | S 3.13 | A 2.79 | F 1.77
K9: D 2.54 | Y 2.6 | A 2.53 | G 2.59 | T 2.66 | Q 2.72 | F 2.14 | W 2.26 | N 2.46 | C 2.35 | M 2.45 | P 2.28 | H 2.29 | E 3.33 | V 2.82 | L 2.42 | I 2.16 | S 2.51 | R 2.53
P7: T 2.18 | C 2.26 | V 2.19 | W 3.07 | Y 2.44 | G 2.7 | Q 2.23 | D 2.85 | S 2.69 | E 2.76 | I 2.38 | N 2.94 | K 2.51 | R 2.31 | L 1.85 | A 2.8 | H 2.23 | M 2.42 | F 2.22
R4: T 2.97 | Q 2.79 | K 2.79 | I 2.67 | S 2.78 | N 2.99 | L 2.89 | P 2.72 | H 2.96 | D 3.17 | E 3.3 | Y 2.66 | V 2.77 | W 2.01 | C 2.94 | G 3.25 | F 2.69 | M 2.61
K14: T 2.92 | D 2.24 | W 2.22 | A 2.17 | M 2.31 | Q 2.59 | R 2.88 | F 2.5 | P 2.85 | C 1.84 | E 2.69 | L 2 | V 2.2 | G 2.48 | S 2.45 | N 2.54 | H 2.29 | Y 2.12 | I 2.19
K17: Q 2.23 | L 1.96 | W 2.72 | H 3.2 | A 2.89 | F 2.04 | N 2.77 | Y 2.29 | R 2.59 | C 2.52 | D 2.52 | E 2.53 | G 2.61 | S 2.19 | V 2.69 | P 2.83 | T 2.67 | M 2.39 | I 2.21
S21: K 2.87 | M 2.51 | L 2.22 | A 3.03 | H 3.53 | F 2.67 | N 2.64 | E 2.83 | G 2.54 | C 4.63 | D 2.92 | I 2.34
D19: P 2.66 | N 3.52 | K 3.14 | E 3.31 | R 3.41 | G 2.63 | Q 2.71 | Y 2.56 | F 2.23 | W 2.56 | A 3.15 | H 2.88 | L 2.43 | S 2.38 | C 3.07 | T 2.97 | M 2.84 | I 3.18 | V 2.07
C8: N 3.86 | G 4.35 | I 3.57 | H 3.63 | S 3.82 | T 3.98 | R 3.81 | W 3.02 | P 3.7 | K 3.88 | E 4.06 | A 4.08 | Y 3.33 | F 3.15 | D 4.16 | Q 3.87 | V 3.61 | M 2.95 | L 3.71
C11: Q 3.75 | W 2.12 | D 4.4 | G 3.91 | I 3.01 | Y 2.76 | M 3.01 | F 2.12 | N 4.14 | E 3.91 | K 4.09 | V 3.11 | S 4.07 | L 3.31 | A 3.23 | R 3.77 | P 3.99 | H 3.68 | T 3.57
K13: S 2.63 | H 2.35 | W 2.65 | Y 2.16 | V 2.59 | T 2.58 | M 2.47 | F 2.55 | I 2.05 | R 2.6 | G 2.68 | C 2.23 | D 2.63 | A 2.51 | E 2.69 | N 2.66 | P 1.68 | L 2.94 | Q 2.36
Y15: E 3.12 | Q 2.9 | W 2.79 | L 3.1 | C 2.73 | H 4.01 | I 2.95 | K 3.49 | S 3.07 | F 2.73 | A 2.8 | V 2.94 | P 2.98 | M 3.11 | G 3.47 | D 3.06 | N 2.99 | T 3.13 | R 3.31
V20: T 2.52 | M 2.88 | S 3.11 | G 2.18 | A 2.85 | E 2.8 | I 2.64 | C 3.68 | N 2.97 | P 3.05 | L 2.46 | Y 2.38 | R 2.49 | H 3.51 | F 1.93 | K 3.07 | Q 3.31 | D 3.29 | W 2.06
K12: T 2.57 | A 2.52 | W 2.37 | D 2.57 | M 2.18 | C 1.58 | S 2.54 | L 2.28 | G 2.5 | N 2.39 | I 2.33 | E 2.86 | Q 2.57 | P 3.25 | H 2.76 | V 2.31 | F 1.79 | Y 2.46 | R 3.54
V16: I 2.5 | A 3.11 | Q 2.63 | E 2.81 | P 3.48 | C 3.63 | N 2.52 | H 2.77 | S 2.93 | R 3.4 | G 2.55 | Y 2.65 | M 2.19 | K 2.75 | L 2.98 | F 2.22 | W 2.31 | T 2.74 | D 2.73
D6: N 1.92 | E 3.14 | S 2.5 | A 2.46 | P 2.22 | K 3.06 | H 2.61 | I 2.21 | R 3.19 | V 2.58 | W 1.98 | T 2.61 | Q 3.71 | C 2.61 | M 2.92 | Y 2.3 | F 2.35 | L 2.15 | G 2.48
